Measurements reported in patent publication US20210087288A1.

Columns and labels:
[1] = target: Cyno TfR extracellular domain (analogous ecd construct) (cynomolgus monkey); assay: SPR, bispecific antibody
[2] = target: Human TfR extracellular domain (ecd) containing an N-terminal His tag (human) (UniProt P02786); assay: SPR, bispecific antibody
Human TfR extracellular domain (ecd) containing an N-terminal His tag (human), sequence (P02786 89-760 G142S): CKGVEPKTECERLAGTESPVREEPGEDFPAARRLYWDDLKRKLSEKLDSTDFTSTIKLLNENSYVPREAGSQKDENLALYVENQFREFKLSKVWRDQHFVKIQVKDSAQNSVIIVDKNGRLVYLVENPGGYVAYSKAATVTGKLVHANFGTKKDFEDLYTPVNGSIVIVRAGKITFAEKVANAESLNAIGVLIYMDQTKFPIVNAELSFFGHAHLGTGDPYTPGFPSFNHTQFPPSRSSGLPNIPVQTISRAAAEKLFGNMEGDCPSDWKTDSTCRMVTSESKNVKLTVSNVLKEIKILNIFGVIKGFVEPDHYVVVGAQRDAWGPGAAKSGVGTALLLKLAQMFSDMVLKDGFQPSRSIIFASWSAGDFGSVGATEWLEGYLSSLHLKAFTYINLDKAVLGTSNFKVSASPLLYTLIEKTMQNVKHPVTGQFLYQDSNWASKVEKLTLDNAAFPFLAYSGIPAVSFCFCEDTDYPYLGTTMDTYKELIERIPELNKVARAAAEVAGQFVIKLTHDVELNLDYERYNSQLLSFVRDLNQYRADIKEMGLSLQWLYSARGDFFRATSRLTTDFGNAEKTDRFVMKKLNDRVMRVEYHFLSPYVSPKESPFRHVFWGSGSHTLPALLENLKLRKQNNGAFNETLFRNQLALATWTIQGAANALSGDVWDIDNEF

Cyno TfR extracellular domain (analogous ecd construct) (cynomolgus monkey), sequence (Q5RDH6 other isoform, or with tags, fused parts or gaps): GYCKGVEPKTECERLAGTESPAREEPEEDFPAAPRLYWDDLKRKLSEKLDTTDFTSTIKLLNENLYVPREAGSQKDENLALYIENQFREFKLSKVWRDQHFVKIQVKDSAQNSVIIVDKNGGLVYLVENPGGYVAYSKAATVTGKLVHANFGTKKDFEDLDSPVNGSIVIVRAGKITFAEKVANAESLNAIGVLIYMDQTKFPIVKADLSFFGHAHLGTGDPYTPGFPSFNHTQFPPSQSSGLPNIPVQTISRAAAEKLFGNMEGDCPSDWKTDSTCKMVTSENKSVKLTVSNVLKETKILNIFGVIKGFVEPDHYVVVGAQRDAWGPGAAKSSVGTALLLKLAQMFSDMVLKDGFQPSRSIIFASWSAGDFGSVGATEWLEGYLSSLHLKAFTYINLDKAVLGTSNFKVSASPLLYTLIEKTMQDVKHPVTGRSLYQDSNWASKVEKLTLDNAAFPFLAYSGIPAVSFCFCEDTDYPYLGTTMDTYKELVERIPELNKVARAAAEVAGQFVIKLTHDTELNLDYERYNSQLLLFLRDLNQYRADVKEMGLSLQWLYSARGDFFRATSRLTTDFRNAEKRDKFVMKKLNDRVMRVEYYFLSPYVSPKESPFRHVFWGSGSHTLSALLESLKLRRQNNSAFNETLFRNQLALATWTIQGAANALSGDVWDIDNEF

Kd [1]: 143 nM
Kd [2]: 24 nM
B1: Anti-TfR^53A/BACE1 bispecific antibody, human IgG1 N297G (bispecific antibody, part only; not given: anti-BACE1 half-antibody, V domains shown, not shown: another chain or arm of the molecule; a dimerising Fc or GST; small tags and cut ends)
VH: EVQLVQSGAEVKKPGASVKVSCKASGYTFTSYWMHWVRQAPGQRLEWIGEINPANGRTNYIEKFKSRATLTVDKSASTAYMELSSLRSEDTAVYYCARGTRAYHYWGQGTMVTVSS
VL: DIQMTQSPSSLSASVGDRVTITCRASDNLYSNLAWYQQKPGKSPKLLVYDATNLADGVPSRFSGSGSGTDYTLTISSLQPEDFATYYCQHFWGTPLTFGQGTKVEIK
